One series has as its system OCCc1ccc(O)cc1. The series is described as follows: purified protein, by the assay type.
The subject of another series is O=C(O)/C=C/c1ccc(O)cc1. The series is described as follows: purified protein, by the assay type.
For a further series, the system named is O=C(O)c1ccccc1O. The series is described as follows: purified protein, by the assay type.
A further series has as its system O=C(O)c1ccc(O)c(O)c1O. The series is described as follows: purified protein, by the assay type.
The subject of a further series is O=C(O)/C=C/c1cccc(O)c1. The series is described as follows: purified protein, by the assay type.
The subject of a further series is O=C(O)c1cccc(O)c1O. The series is described as follows: purified protein, by the assay type.
In the next series the test system is O=C(O)c1ccc(O)cc1. The series is described as follows: purified protein, by the assay type.
The next series deals with O=C(O)c1cc(O)c(O)c(O)c1. The series is described as follows: purified protein, by the assay type.
The subject of series [1] is O=C1C[C@@H](c2ccc(O)cc2)Oc2cc(O)cc(O)c21. The series is described as follows: purified protein, by the assay type.
The test system of the next series is O=C(O)c1cc(O)cc(O)c1. The series is described as follows: purified protein, by the assay type.
For series [2], the system named is O=C1c2c(O)cc(O)cc2O[C@H](c2ccc(O)c(O)c2)[C@H]1O. The series is described as follows: purified protein, by the assay type.
In the next series the test system is COc1cc(C(=O)O)ccc1O. The series is described as follows: purified protein, by the assay type.
A further series deals with O=C(O)c1c(O)cccc1O. The series is described as follows: purified protein, by the assay type.
In the next series the test system is COc1ccc(C(=O)O)cc1O. The series is described as follows: purified protein, by the assay type.
Another series has as its system O=C(O)c1cccc(O)c1. The series is described as follows: purified protein, by the assay type.
For a further series, the system named is O=C(O)c1ccc(O)cc1O. The series is described as follows: purified protein, by the assay type.
For another series, the system named is O=C(O)c1cc(O)ccc1O. The series is described as follows: purified protein, by the assay type.
Series [3] concerns O=C1C[C@@H](c2ccc(O)c(O)c2)Oc2cc(O)cc(O)c21. The series is described as follows: purified protein, by the assay type.
For series [4], the system named is O=c1c(O)c(-c2ccc(O)c(O)c2)oc2cc(O)cc(O)c12. The series is described as follows: purified protein. Conditions: heme.
For series [5], the system named is Oc1cc(O)c2c(c1)O[C@H](c1ccc(O)c(O)c1)[C@H](O)C2. The series is described as follows: purified protein. Conditions: heme.
For series [6], the system named is O=C(O)/C=C/c1ccc(O)c(O)c1. The series is described as follows: purified protein. Conditions: heme.
Series [7] concerns O=c1cc(-c2ccc(O)c(O)c2)oc2cc(O)cc(O)c12. The series is described as follows: purified protein. As to conditions: heme.
The next series has as its system OCCc1ccc(O)c(O)c1. The series is described as follows: purified protein. As to conditions: heme substrate channel of LPO.
The subject of another series is O=C(O)c1ccc(O)c(O)c1. The series is described as follows: purified protein. Conditions: heme.
Series [8] has as its system O=c1cc(-c2ccc(O)cc2)oc2cc(O)cc(O)c12. The series is described as follows: purified protein. As to conditions: heme.
Series [9] concerns O=C1C[C@@H](c2ccc(O)c(O)c2)Oc2cc(O)cc(O)c21. The series is described as follows: purified protein. Conditions: heme.
The target of series [10] is T1, lactoperoxidase (Bos taurus, UniProt P80025). In kind it is biochemical.
In series [11] the target is T1, lactoperoxidase. Conditions: read-out: Km, / µM; 80 uM H2O2, 2 mM SCN-, pH 7.4, 37 C; substrate.

The text below walks through data of publication PMC5669353 (Biochemistry and Biophysics Reports, 2015).

Usually kcat stands for the maximal rate divided by the concentration of active sites. What is called kcat/Km is the turnover number divided by the Michaelis constant. Regarding lactoperoxidase (Bos taurus), the Km in the series on OCCc1ccc(O)cc1 amounted to 4.5 ± 0.0 µM; with O=C(O)/C=C/c1ccc(O)cc1 it was 35.1 ± 0.1 µM; in the series with O=C(O)c1ccccc1O, 1638.4 ± 439.3 µM; in the series with O=C(O)c1ccc(O)c(O)c1O, 84.8 ± 0.0 µM; in the series on O=C(O)/C=C/c1cccc(O)c1, 37.8 ± 8.9 µM; in the series on O=C(O)c1cccc(O)c1O, 71.3 ± 1.3 µM. The Km with O=C(O)c1ccc(O)cc1 was 119.6 ± 8.1 µM; in the series on O=C(O)c1cc(O)c(O)c(O)c1, 176.8 ± 0.0 µM; in series [1], 0.2 ± 0.0 µM; in the series with O=C(O)c1cc(O)cc(O)c1, 118.0 ± 7.9 µM; in series [2], 0.8 ± 0.0 µM; in the series with COc1cc(C(=O)O)ccc1O it was 948.4 ± 0.2 µM. Besides, the Km in the series on O=C(O)c1c(O)cccc1O was determined as 149.1 ± 51.4 µM; in the series on COc1ccc(C(=O)O)cc1O, 803.5 ± 147.2 µM; in the series with O=C(O)c1cccc(O)c1, 144.2 ± 28.9 µM; in the series with O=C(O)c1ccc(O)cc1O, 119.6 ± 8.3 µM; in the series on O=C(O)c1cc(O)ccc1O, 304.2 ± 0.1 µM; in series [3], 0.4 ± 0.0 µM. The Km in series [4] came out at 1.7 ± 0.2 µM; in series [5] it was 0.6 ± 0.0 µM; in [6], 6.9 ± 0.3 µM; in series [7], 0.2 ± 0.0 µM; in the series on OCCc1ccc(O)c(O)c1, 1.6 ± 0.1 µM; with O=C(O)c1ccc(O)c(O)c1, 63.9 ± 51.4 µM. The Km is 0.1 ± 0.0 µM in [8] and 0.358 ± 0.005 µM in series [9]. The kcat with OCCc1ccc(O)cc1 came to 39 s⁻¹; in the series on O=C(O)/C=C/c1ccc(O)cc1 it was 11 s⁻¹; with O=C(O)c1ccc(O)c(O)c1O, 24.5 s⁻¹; with O=C(O)/C=C/c1cccc(O)c1 it was 24 s⁻¹; in the series on O=C(O)c1cccc(O)c1O it was 17.9 s⁻¹; with O=C(O)c1ccc(O)cc1 it was 16.7 s⁻¹. For the same compound, the kcat in the series on O=C(O)c1cc(O)c(O)c(O)c1 was 30.9 s⁻¹; in series [1], 19 s⁻¹; with O=C(O)c1cc(O)cc(O)c1 it was 22.7 s⁻¹; in series [2] it was 48.2 s⁻¹; in the series with COc1cc(C(=O)O)ccc1O, 78.5 s⁻¹; with O=C(O)c1c(O)cccc1O, 14.8 s⁻¹. The kcat in the series on COc1ccc(C(=O)O)cc1O amounted to 67.7 s⁻¹; in the series with O=C(O)c1cccc(O)c1, 36.5 s⁻¹; in the series with O=C(O)c1ccc(O)cc1O, 7 s⁻¹; in the series with O=C(O)c1cc(O)ccc1O, 22.4 s⁻¹; in series [3], 52.4 s⁻¹; in [4] it was 102 s⁻¹. The kcat is 41.4 s⁻¹ in series [5]; 37.2 s⁻¹ in [6]; 91.6 s⁻¹ in [7]; 67 s⁻¹ in the series with OCCc1ccc(O)c(O)c1; 59.2 s⁻¹ in the series with O=C(O)c1ccc(O)c(O)c1; 13.1 s⁻¹ in series [8]. The kcat/Km stood at 8.73e+06 M⁻¹ s⁻¹ with OCCc1ccc(O)cc1; 310000 M⁻¹ s⁻¹ in the series with O=C(O)/C=C/c1ccc(O)cc1; 290000 M⁻¹ s⁻¹ in the series with O=C(O)c1ccc(O)c(O)c1O; 630000 M⁻¹ s⁻¹ with O=C(O)/C=C/c1cccc(O)c1; 250000 M⁻¹ s⁻¹ with O=C(O)c1cccc(O)c1O; 140000 M⁻¹ s⁻¹ in the series with O=C(O)c1ccc(O)cc1. Besides, the kcat/Km in the series on O=C(O)c1cc(O)c(O)c(O)c1 worked out at 180000 M⁻¹ s⁻¹; in [1], 1.03e+08 M⁻¹ s⁻¹; in the series with O=C(O)c1cc(O)cc(O)c1 it was 190000 M⁻¹ s⁻¹; in [2], 6.3e+07 M⁻¹ s⁻¹; in the series on COc1cc(C(=O)O)ccc1O, 80000 M⁻¹ s⁻¹; with O=C(O)c1c(O)cccc1O, 100000 M⁻¹ s⁻¹. Also, the kcat/Km was determined as 80000 M⁻¹ s⁻¹ in the series on COc1ccc(C(=O)O)cc1O; 250000 M⁻¹ s⁻¹ in the series on O=C(O)c1cccc(O)c1; 60000 M⁻¹ s⁻¹ with O=C(O)c1ccc(O)cc1O; 70000 M⁻¹ s⁻¹ with O=C(O)c1cc(O)ccc1O; 1.46e+08 M⁻¹ s⁻¹ in series [3]; 6.07e+07 M⁻¹ s⁻¹ in series [4]. In addition, the kcat/Km in series [5] worked out at 6.84e+07 M⁻¹ s⁻¹; in [6], 5.4e+06 M⁻¹ s⁻¹; in [7] it was 4.72e+08 M⁻¹ s⁻¹; in the series with OCCc1ccc(O)c(O)c1, 4.21e+07 M⁻¹ s⁻¹; in the series on O=C(O)c1ccc(O)c(O)c1 it was 930000 M⁻¹ s⁻¹; in series [8] it was 1.22e+08 M⁻¹ s⁻¹.
A word on the IC50: it is the point on the concentration scale where inhibition reaches its midpoint. A lower IC50 goes with greater potency in that assay. As for `O=C(O)c1c(O)cc(O)cc1O` [2,4,6-trihydroxybenzoic acid], the IC50 at lactoperoxidase [10] was found to be 36.7 ± 9.6 µM.
For the compound `O=c1cc(-c2ccccc2)oc2cc(O)cc(O)c12` [chrysin], at lactoperoxidase [10], the IC50 amounted to 0.23 ± 0.15 µM.
Regarding `COc1ccc(C(=O)O)cc1OC` [3,4-dimethoxybenzoic acid], on lactoperoxidase [11], the Km came out at 981 ± 69.8 µM.
